Experimental findings from patent US20240376149A1, “Novel Modulators of GABABR1a” (VIB VZW, priority 2021, published 2024) are described below.

Where two headings read alike, the source gives them in different places. *1 amine or outer side, *2 acyl side, *3 side chain or, on linkers, in order; H or OH if unused. Where no end group is shown, it is not given here. [ ]: non-standard residue; d: D form. NEtW = N-ethyl-tryptophan (F149), CCN([C@@H](Cc1c[nH]c2ccccc12)C(=O)[*:2])[*:1]; F182 = not defined here; F72 = not defined here

What is called IC50 is the point on the concentration scale where inhibition reaches its midpoint. Low readings indicate greater potency, high ones weaker potency. The term Kd denotes the concentration at which binding is half-saturated.

Test [1] addresses T1, Sushi domain 1 of the human GABA B1a receptor (human, UniProt Q9UBS5 26-96).
T1 construct: Purified recombinant protein from E. coli; also called SD1; GABABR1a-SD1
Kind of test: FP competition vs FITC-9mer on purified SD1. The procedure: To screen for GABABR1a binders using unlabelled test compounds, the assay was turned into a competition assay using FITC-9mer. […] To validate this inhibitor assay, the IC50 values were determined of the 17-mer, 9-mer, 5-mer as well as those from 3 negative controls: 10-mer, scrambled 17-mer and a scrambled 9-mer (FIG. 2).
Based on structural information of DIYWS-SD1 and DIWWS-SD1 co-crystals, 48 peptides containing non-natural residues were manually designed and checked for binding to the GABABR1a SD1 in the FP assay at a concentration of 50 μM. These non-natural peptides were categorized based on the IC50 values obtained in the FP assay (Table 3). […] The listed non-natural 5-mers all share D-aspartate was on position 1 (residue position 4 of the 9-mer), L-isoleucine on position 2 (residue position 5 of the 9-mer), L-tryptophane on position 4 (residue position 7 of the 9-mer) and L-serine on position 5 (residue position 8 of the 9-mer), while position 3 is selected from the list consisting of L-tyrosine, isoethylmethyl-benzene, 6-chloro-3-methyl-1H-indole, methylcyclohexane, ethylcyclohexane, 2-naphthalene, ethylbenzene, 1,1-difluoro-4-cyclohexyl, 4-methyl-1-methoxy-2-methylbenzene, 1-chloro-4-methylbenzene, 4-methylphenyl-methanol, 3-methylbenzoic acid and 4-methylaniline.

Test [2] deals with T1, Sushi domain 1 of the human GABA B1a …. Kind of test: ITC, peptide titrated into purified SD1. The procedure: (§1) The Sushi-1 protein was dialysed overnight to PBS buffer and diluted to 30 μM in the same buffer. The peptides were resuspended in PBS at a stock concentration of 3 mM and diluted further in the same buffer to 300 μM. ITC experiments were performed on a Microcal ITC200 device. Titrations comprised 26×1.5 μL injections of peptide into protein, with 90 s intervals. An initial injection of ligand (0.5 μL) was made and discarded during data analysis. The data were fitted to a single binding site model using the Microcal LLC ITC₂₀₀. Original software provided by the manufacturer.
For orientation: Isothermal titration calorimetry measures the heat released or taken up as one component is titrated into another.

The target of test [3] is T2, Ectodomain of GABABR1a comprising SD1, expressed on HEK293 cells with N-terminal His-tag (human, UniProt Q9UBS5 20-591, limits assumed).
T2 construct: extracellular domain; also called GABABR1a-SD1 (on cells); GABABR1a ectodomain
T2 sequence (Q9UBS5 20-591 limits assumed): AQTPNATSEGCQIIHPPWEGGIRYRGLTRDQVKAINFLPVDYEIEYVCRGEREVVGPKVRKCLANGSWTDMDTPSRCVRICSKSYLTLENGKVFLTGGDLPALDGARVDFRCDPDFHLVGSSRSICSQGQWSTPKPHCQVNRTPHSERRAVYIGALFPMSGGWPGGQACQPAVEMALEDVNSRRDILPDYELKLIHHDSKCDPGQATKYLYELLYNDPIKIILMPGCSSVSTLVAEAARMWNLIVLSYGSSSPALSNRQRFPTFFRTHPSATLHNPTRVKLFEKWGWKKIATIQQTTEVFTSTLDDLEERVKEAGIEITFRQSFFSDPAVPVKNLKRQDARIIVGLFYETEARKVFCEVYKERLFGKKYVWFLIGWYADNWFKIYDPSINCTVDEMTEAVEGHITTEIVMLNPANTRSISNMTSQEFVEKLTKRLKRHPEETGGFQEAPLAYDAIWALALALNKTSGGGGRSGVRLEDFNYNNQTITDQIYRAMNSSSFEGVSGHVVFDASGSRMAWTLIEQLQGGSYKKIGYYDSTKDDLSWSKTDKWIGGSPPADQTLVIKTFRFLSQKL
Kind of test: flow cytometry competition vs biotin-9mer on HEK293 cells expressing GABABR1a ectodomain. As for the experimental part: Next, the top ranking compounds were tested in a cell-based binding assay. HEK293 cells were transformed to express the ectodomain of GABABR1a comprising SD1. In this cell-based assay, SD1 is expressed on the GABABR1a ectodomain and can adopt a more physiological conformation, compared to the purified SD1 protein used in the primary assay (FP assay). Before testing the active compounds, it was confirmed that 9-mer (tagged with Biotin) binds specifically to cells expressing GABABR1a-SD1 and not GABABR1b.
HEK293 were transfected with plasmids encoding the ectodomain of GABABR1a (as in Rice et al., 2019), carrying a His-tag at the N-terminal. After 24 h of expression, cells were harvested and adjusted to a concentration of 1×10^6 cells/mL in ice-cold 2% FBS/PBS. Incubation with each peptide (in dose-response curve) was carried out at 4° C. for 1 h, followed by incubation with the biotion-9mer (10 μM) peptide during 30 min. Detection antibodies recognizing either His protein or biotin were added for a period of 30 min. The assay plate containing the cells was loaded into the Attune NxT Cytometer, parameters were adjusted accordingly with the cell type and signal intensity. In each experiment, positive and negative control were added to the plate.
For orientation: A flow cytometer gives signals particle by particle.

In test [4] the target is T1, Sushi domain 1 of the human GABA B1a …. Kind of test: ITC, peptide titrated into purified SD1. The procedure: First, we wondered whether the wild-type sAPP 9-mer peptide would be the optimal sequence in terms of SD1 binding or whether sequence variants of the sAPP 9-mer would have improved binding to the GABABR1a-SD1. Therefore a panel of single and double sAPP 9-mer mutants was generated. An alanine scan was performed for the residues on position 1 to position 7. Based on an ITC assay, these single mutant peptides bound the SD1 with the same or slightly higher Kd (Table 1). Also the double mutants VIB_P04, VIB_P05 and VIB_P19 bound with a similar Kd to SD1 compared to the wild-type 9-mer. We have also tested the effect of the D-isomer of the amino residues on position 1 to 4, in single or multiple combinations. None of the mutations had strong effects on the measured Kd (Table 1). We therefore conclude that the wild-type sAPP 9-mer is already optimized but that many variants bind as good to SD1 and thus will modulate GABABR1a in a similar manner.
as §1
The source holds these as a separate data set.

Test [5] shares this target. Kind of test: FP competition vs FITC-9mer on purified SD1. As for the experimental part:
Next, 35 variants of the DVWWG 5-mer peptide containing natural residues were tested in the above described FP assay. The peptides were tested at a concentration of 50 μM.
To determine if the peptides of this application were able to disrupt the SD1-9-mer complex, each peptide (in single point or dose-response curve) tested was incubate with SD1 protein for 1 h at RT. After this initially incubation, FITC-9mer was added to the previous mix and incubated during 2 h at RT. The signal intensity was measure in an appropriate plate reader using the following settings: Number of flashes per well: 200; Excitation: F482-16; Dichroic filter: FLP 504; Emission A F530-40; Gain A: 738, Gain B: 736. The assay was conducted in a 384-well plate.
The source holds these as a separate data set.

T1 sequence (Q9UBS5 26-96 limits assumed): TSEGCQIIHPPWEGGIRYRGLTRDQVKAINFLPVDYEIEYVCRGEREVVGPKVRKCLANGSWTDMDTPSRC

B1: VIB-0068895 (peptide)
peptide: DIXWS
modifications: not fully specified; D-aspartic acid at position 1; position 3 (X) is the non-natural residue F195 = 2-naphtalene
notes: Peptidomimetic 5-mer; X marks the non-natural residue
Regarding B1, in test [1], the “% inhibition 50 µM” value is 96.3% and the IC50 stood at 11.1 µM. In test [2], this molecule yielded a Kd of 1.39 µM. Moreover, in test [3], the “% inhibition 100 µM” value is 77% and the IC50 was 43.3 µM.

B2: VIB-0068894 (peptide)
peptide: DIXWS
modifications: D-aspartic acid at position 1; position 3 (X) is the non-natural residue F126 = 6-chloro-3-methyl-1H-indole
notes: as for B1
Turning to B2, in test [1], the “% inhibition 50 µM” value is 96.8% and the IC50 stood at 7.12 µM. The molecule further came in with a Kd in test [2] of 0.34 µM. Moreover, in test [3], the “% inhibition 100 µM” value was 84.2% and the IC50 was determined as 28.7 µM.
Regarding [dD]DSDVWWGG [VIB_P08], the Kd in test [4] is 6.45 µM.

B3: VIB-0068911 (peptide)
peptide: [dD]I[F72]WS
modifications: not fully specified; reading uncertain
notes: as for B1
In the case of B3, in test [1], the “% inhibition 50 µM” value was 98.1% and the IC50 is 6.54 µM. In addition, binding in test [2] was put at a Kd of 0.54 µM. For the same molecule, in test [3], the “% inhibition 100 µM” value is 90% and the IC50 worked out at 38 µM.

B4: VIB-0068910 (peptide)
peptide: DIXWS
modifications: D-aspartic acid at position 1; position 3 (X) is the non-natural residue F70 = ethylbenzene
notes: as for B1
Regarding B4, in test [1], the “% inhibition 50 µM” value came out at 88.6% and the IC50 amounted to 11.9 µM. Besides, the Kd in test [2] was determined as 2.9 µM. Moreover, the “% inhibition 100 µM” value in test [3] turned out to be 54.2%.

B5: VIB_P33 (peptide)
peptide: DVWWG
notes: also called DVWWG 5-mer; wild-type 5-mer
B5: the “% inhibition 50 µM” value in test [5] was found to be 66%. Further, the Kd in test [2] and in test [4] was 9.09 µM throughout.
As for PIHWS [VIB_P45], binding in test [2] was characterised by a dissociation constant (Kd) of 38 µM.
With DIWWS (also called VIB_34; DIWWS) [VIB_P34], the “% inhibition 50 µM” value in test [5] amounted to 81.9%. This molecule showed a Kd in test [2] of 1.02 µM.
As to DIHWG [VIB_P36], the “% inhibition 50 µM” value in test [5] worked out at 25.5%. The molecule also returned a Kd in test [2] of 18.4 µM.
Regarding DVHWS [VIB_P23], the Kd in test [2] turned out to be 25.1 µM.

B6: VIB-0068904 (peptide)
peptide: [dD]I[NEtW]WS
notes: Peptidomimetic 5-mer; position 3 is written W for N-ethyl-tryptophan
B6: in test [1], the “% inhibition 50 µM” value worked out at 26.7%. In test [2], the Kd was 1.02 µM.
Take DDS[dD]VWWGG (Printed as DDS{D-ASP}VWWGG) [VIB_P11]: the Kd in test [4] turned out to be 6.21 µM.

B7: VIB-0068907 (peptide)
peptide: [dD]I[F182]WS
modifications: not fully specified; reading uncertain
notes: as for B1
As for B7, in test [1], the “% inhibition 50 µM” value is 86.2% and the IC50 was found to be 12.6 µM. Further, binding in test [2] was put at a Kd of 2.47 µM. In test [3], the “% inhibition 100 µM” value worked out at 47.2% and the IC50 worked out at 49.2 µM.
DASDVWWGG [VIB_P01]: in test [4], the Kd came to 12.2 µM.
For the molecule DASAVWWGG [VIB_P04], in test [4], the Kd was found to be 5.85 µM.
Same read-out and setting: to AASDVWWGG [VIB_P19] belongs 18.1 µM.
Turning to DDADVWWGG [VIB_P02], the Kd in test [4] is 3.68 µM.
On to DDSAVWWGG [VIB_P03], for which the Kd in test [4] came to 10 µM.
On the same count and under the same terms, in the case of ADSDVWWGG [VIB_P12] it was 7.58 µM.
Take DD[dS]DVWWGG (Printed as DD{D-SER}DVWWGG) [VIB_P10]: the Kd in test [4] is 8.47 µM.

B8: VIB-0068903 (peptide)
peptide: DIXWS
modifications: D-aspartic acid at position 1; position 3 (X) is the non-natural residue F141 = ethylcyclohexane
notes: as for B1
On to B8, for which, in test [1], the “% inhibition 50 µM” value stood at 93.9% and the IC50 was determined as 8.22 µM. In addition, the Kd in test [2] turned out to be 0.93 µM. In addition, in test [3], the “% inhibition 100 µM” value is 76% and the IC50 was found to be 154 µM.
Regarding DDSDVWW [VIB_P06], the Kd in test [4] came out at 25.8 µM.

B9: VIB-0068896 (peptide)
peptide: DIXWS
modifications: D-aspartic acid at position 1; position 3 (X) is the non-natural residue F44 = (4-methylphenyl)methanol
notes: as for B1
For the molecule B9, in test [1], the “% inhibition 50 µM” value is 56.6% and the IC50 came to 48 µM. In test [2], binding was characterised by a dissociation constant (Kd) of 7.46 µM.

B10: VIB-0068905 (peptide)
peptide: DIXWS
modifications: D-aspartic acid at position 1; position 3 (X) is the non-natural residue F15 = methylcyclohexane
notes: as for B1
For B10, in test [1], the “% inhibition 50 µM” value was 94.8% and the IC50 was found to be 8.11 µM. Besides, the Kd in test [2] is 0.25 µM. Further, in test [3], the “% inhibition 100 µM” value came to 68.3% and the IC50 was 78.8 µM.
